The values that follow come from US20070224205A1.

The experiment has as its target Toll-like Receptor 5 (UniProt O60602). The experiment in a line: cell-based or functional assay.

B1: ngSTF2.HA1-1His(PR8) (protein)
chain: AQVINTNSLSLLTQNNLQKSQSALGTAIERLSSGLRINSAKDDAAGQAIANRFTANIKGLTQASRNANDGISIAQTTEGALNEINNNLQRVRELAVQSAQSTNSQSDLDSIQAEITQRLNEIDRVSGQTQFNGVKVLAQDNTLTIQVGANDGETIDIDLKQINSQTLGLDSLNVQKAYDVKDTAVTTKAYANQGTTLDVSGLDDAAIKAATGGTQGTASVTGGAVKFDADNNKYFVTIGGFTGADAAKNGDYEVNVATDGTVTLAAGATKTTMPAGATTKTEVQELKDTPAVVSADAKNALIAGGVDATDANGAELVKMSYTDKNGKTIEGGYALKAGDKYYAADYDEATGAIKAKTTSYTAADGTTKTAANQLGGVDGKTEVVTIDGKTYQASKAAGHDFKAQPELAEAAAKTTENPLQKIDAALAQVDALRSDLGAVQNRFNSAITNLGNTVNQLSEARSRIEDSDYATEVSQMSRAQILQQAGTSVLAQANQVPQNVLSLLASGSGSGSSHNGKLCRLKGIAPLQLGKCNIAGWLLGNPECDPLLPVRSWSYIVETPNSENGICYPGDFIDYEELREQLSSVSSFERFEIFPKESSWPNHNTNGVTAACSHEGKSSFYRNLLWLTEKEGSYPKLKNSYVNKKGKEVLVLWGIHHPPNSKEQQNLYQNENAYVSVVTSNYNRRFTPEIAERPKVRDQAGRMNYYWTLLKPGDTIIFEANGNLIAPMYAFALSRGFGSGIITSQASMHECNTKCQTPLGAIQSSLPYQNIHPVTIGECPKYVRHHHHHH
B1 came in with a TLR activity (EC50, ng/ml); IL-8 secretion by HEK293 cells of 30 ng/mL.
